The results in this text go back to US20220073621A1 (EUCURE BEIJING BIOPHARMA, published 2022).

Test [1] has as its target T1, Mouse PD-L1 on CHO cells (mouse, UniProt Q9EP73 19-290).
T1 construct: Expressed in CHO cells for the cross-reactivity test; also called mPD-L1; murine PD-L1 protein
The test is described as follows: flow cytometry on CHO cells expressing mPD-L1. The text has this:
The rhesus monkey PD-L1 protein coding sequence (rmPD-L1, SEQ ID NO: 54), the mouse PD-L1 protein coding sequence (mPD-L1, SEQ ID NO: 53), and the human-mouse chimeric PD-L1 (the extracellular region of the mouse PD-L1 protein was replaced with human protein fragments) protein coding sequence (chiPD-L1, SEQ ID NO: 55) were transferred into CHO cells for protein expression and used for the antibody cross-reactivity testing.
The test was detailed as follows: a 96-well cell culture plate was used, and the above-mentioned CHO cells expressing different PD-L1 proteins (25 μl, 2×10⁴ cells/well) was added to each well, and then 25 μl of the ascites purified anti-PD-L1 antibodies (1 μg/ml) were added to each well. The mixture was incubated at 4° C. for 30 minutes. The 96-well cell culture plate was centrifuged at 1200 rpm for 5 minutes and washed twice with PBS. Subsequently, 50 μl of anti-mouse IgG Fc-FITC at 1:100 dilution was added to each well, and was incubated at 4° C. for 30 minutes. Subsequently, the 96-well cell culture plate was centrifuged at 1200 rpm for 5 minutes, and washed once with PBS. Then 200 μl of PBS was added to each well, and flow cytometry analysis was performed.

Test [2] has as its target T1, Mouse PD-L1 on CHO cells. The test is described as follows: flow cytometry, CHO-mPD-L1 cells, Anti-human IgG Fc-FITC, antibody 1 µg/ml. (In general: A flow cytometer gives signals particle by particle.)
Target sequence in this assay (Q9EP73 19-290 limits assumed): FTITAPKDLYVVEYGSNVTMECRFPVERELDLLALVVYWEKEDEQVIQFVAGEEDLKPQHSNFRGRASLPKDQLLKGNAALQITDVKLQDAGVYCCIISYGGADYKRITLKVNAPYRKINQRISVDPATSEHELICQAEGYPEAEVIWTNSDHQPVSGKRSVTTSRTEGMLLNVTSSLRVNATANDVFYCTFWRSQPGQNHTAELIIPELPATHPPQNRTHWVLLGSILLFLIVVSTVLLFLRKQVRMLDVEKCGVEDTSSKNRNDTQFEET

B1: 33-10C9-mHvKv-IgG1 (antibody, V domains shown)
VH: QVQLQQPGAELVKPGSSVKLSCKASGYTFTTYYIYWVKQRPGQGLEWIGGINPYNGGTSFNEKFESKATLTVDISSSTAFMQLSSLTSEDSAVYYCTRDGNYVDYWGQGTTLTVSS
VL: QIVLTQSPAIMSASPGEKVTITCSASSTVSYVHWLQQKPDTSPKLWIYSTSNLASGVPARFSGSGSGTSYSLTISRMEAEDAATYYCQQRSSSPPTFGSGTKLEIK
In the case of B1, the binding result in test [1] is listed as “no binding (tested: 1 µg/ml)”. Moreover, the “% cells in the FITC-positive gate” value in test [2] was determined as 0.556%.

B2: 23-2A6-mHvKv-IgG1 (antibody, V domains shown)
VH: QVQLKESGPGLVAPSQSLSITCTVSGFSLTSYDISWIRQPPGKGLEWLGAIWTGGGTNYNSAFMSRLSISKDNSKSQVFLKMNSLQTDDTAIYYCVRDPYYYAMDYWGQGTSVTVSS
VL: DIQMNQSPSSLSASLGDTITITCHASQNLNVWLSWYQQKPGNIPKLLIYKASNLHTGVPSRFSGSGSGTGFTLTISSLQPEDIATYYCQQGQSYPRTFGGGTKLEIK
As to B2, the binding result in test [1] was “no binding (tested: 1 µg/ml)”. Also, the “% cells in the FITC-positive gate” value in test [2] turned out to be 0.886%.

B3: 24-1F4-mHvKv-IgG1 (antibody, V domains shown)
VH: EVQLRESGPSLVRPSQTLSLTCSVTGDSFTSGYWNWIRKFPGNELESMGYISYSGSTYYNPSLKSRISITRDTSKSQFYLQLSSVTAEDTATYYCARSEGWLLPFAYWGQGTLVTVSA
VL: DIVMSQSPSSLPVSVGEKVTMSCKSSQSLLYSSNQKNSLAWYQQKPGQSPKLLIYWASTRESGVPDRFTGSGSGTDFTLTISSVQAEDLSVYYCQQYYGYPFTFGSGTKLEIK
Regarding B3, in test [1], the binding result is listed as “no binding (tested: 1 µg/ml)”. Also, the “% cells in the FITC-positive gate” value in test [2] amounted to 15.5%.

B4: 23-4A8-mHvKv-IgG1 (antibody, V domains shown)
VH: EVQLQESGPSLVKPSQTLSLTCSVTGDSITSGYWNWIRKFPGNKLEYMGYISYTGSTYYNPSLKSRFSITRDTSKNQYFLQLNSVTTEDTATYYCASYEGWLLPFAYWGQGTLVTVSA
VL: DIVMSQSPSSLAVSVGEKVPLSCKSSQSLLYSSNQKSSLAWYQQKPGQSPKLLIYWASTRESGVPDRFTGSGSGTDFTLTISSVKAEDLAVYYCQQYYGYPFTFGSGTKLEIK
On to B4, for which the binding result in test [1] is “no binding (tested: 1 µg/ml)”. Besides, in test [2], the “% cells in the FITC-positive gate” value worked out at 3.07%.
